Laboratory results published in patent US20140173783.

How the values were obtained:
[1] = system: ZFN 25717 (E32 ZFN6 monomer) (artificial); assay: cell_activity; settings: pair 25716/25717, NGS indels in maize Hi-II callus
[2] = system: ZFN 25716 (E32 ZFN6 monomer) (artificial); assay: cell_activity; settings: pair 25716/25717, NGS indels in maize Hi-II callus

Sequence | activity (% of IPPK2 ZFN activity) [1] | activity (% of IPPK2 ZFN activity) [2]
CGGAAGCGGATGGCCCGCTTCTTTAGAA (double strand) [25717 target] | 380 | –
TGATCGCATCGGGCATCGGCGACTGATG (double strand) [25716 target] | – | 380
